According to patent US20070053894:

Legend:
[1] = biological target: T1, Soluble human recombinant p97 (melanotransferrin)
T1 chain: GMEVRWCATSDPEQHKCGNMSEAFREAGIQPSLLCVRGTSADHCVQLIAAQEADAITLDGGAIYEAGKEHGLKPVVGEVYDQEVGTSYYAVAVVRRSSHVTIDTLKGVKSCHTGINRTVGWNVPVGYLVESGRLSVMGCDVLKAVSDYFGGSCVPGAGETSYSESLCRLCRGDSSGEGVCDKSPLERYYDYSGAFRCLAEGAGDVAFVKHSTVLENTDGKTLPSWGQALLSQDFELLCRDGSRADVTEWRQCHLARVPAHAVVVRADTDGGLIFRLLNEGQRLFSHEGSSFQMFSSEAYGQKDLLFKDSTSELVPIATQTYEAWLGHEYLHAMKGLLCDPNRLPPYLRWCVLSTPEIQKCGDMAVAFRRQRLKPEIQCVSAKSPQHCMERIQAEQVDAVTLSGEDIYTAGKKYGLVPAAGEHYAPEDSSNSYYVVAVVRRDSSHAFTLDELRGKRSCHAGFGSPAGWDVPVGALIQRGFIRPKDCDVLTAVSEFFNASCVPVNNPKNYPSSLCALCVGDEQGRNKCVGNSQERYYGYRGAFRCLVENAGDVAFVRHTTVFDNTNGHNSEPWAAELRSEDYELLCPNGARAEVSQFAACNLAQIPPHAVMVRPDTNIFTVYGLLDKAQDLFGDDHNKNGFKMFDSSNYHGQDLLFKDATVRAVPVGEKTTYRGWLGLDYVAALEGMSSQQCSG

plasminogen, P00747 = biological target: T2, plasminogen, P00747
T2 chain: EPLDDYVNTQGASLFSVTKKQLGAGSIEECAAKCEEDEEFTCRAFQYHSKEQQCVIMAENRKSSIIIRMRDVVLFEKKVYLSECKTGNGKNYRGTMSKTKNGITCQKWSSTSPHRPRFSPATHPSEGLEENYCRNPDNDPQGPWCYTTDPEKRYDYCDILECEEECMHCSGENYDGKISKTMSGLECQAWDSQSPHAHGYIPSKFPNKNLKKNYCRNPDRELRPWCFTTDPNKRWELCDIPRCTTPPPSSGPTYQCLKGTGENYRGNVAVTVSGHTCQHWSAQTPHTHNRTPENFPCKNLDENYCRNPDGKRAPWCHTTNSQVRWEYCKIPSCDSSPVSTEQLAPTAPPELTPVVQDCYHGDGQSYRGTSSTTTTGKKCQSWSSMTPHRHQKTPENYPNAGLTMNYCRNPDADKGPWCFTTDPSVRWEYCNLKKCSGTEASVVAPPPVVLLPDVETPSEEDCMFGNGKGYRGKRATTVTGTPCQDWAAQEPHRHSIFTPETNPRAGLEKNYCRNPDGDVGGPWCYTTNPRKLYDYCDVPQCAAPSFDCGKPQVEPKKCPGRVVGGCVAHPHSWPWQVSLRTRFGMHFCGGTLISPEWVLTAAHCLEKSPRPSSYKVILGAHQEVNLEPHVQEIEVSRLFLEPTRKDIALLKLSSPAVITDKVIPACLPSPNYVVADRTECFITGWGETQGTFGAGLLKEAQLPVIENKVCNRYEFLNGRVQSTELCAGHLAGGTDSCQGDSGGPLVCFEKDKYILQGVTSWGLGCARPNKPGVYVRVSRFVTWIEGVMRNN

B1: tissue plasminogen activator (tPA) (protein)
chain: SYQVICRDEKTQMIYQQHQSWLRPVLRSNRVEYCWCNSGRAQCHSVPVKSCSEPRCFNGGTCQQALYFSDFVCQCPEGFAGKCCEIDTRATCYEDQGISYRGTWSTAESGAECTNWNSSALAQKPYSGRRPDAIRLGLGNHNYCRNPDRDSKPWCYVFKAGKYSSEFCSTPACSEGNSDCYFGNGSAYRGTHSLTESGASCLPWNSMILIGKVYTAQNPSAQALGLGKHNYCRNPDGDAKPWCHVLKNRRLTWEYCDVPSCSTCGLRQYSQPQFRIKGGLFADIASHPWQAAIFAKHRRSPGERFLCGGILISSCWILSAAHCFQERFPPHHLTVILGRTYRVVPGEEEQKFEVEKYIVHKEFDDDTYDNDIALLQLKSDSSRCAQESSVVRTVCLPPADLQLPDWTECELSGYGKHEALSPFYSERLKEAHVRLYPSSRCTSQHLLNRTVTDNMLCAGDTRSGGPQANLHDACQGDSGGPLVCLNDGRMTLVGIISWGLGCGQKDVPGVYTKVTNYLDWIRDNMRP
[1]
  VLK-pNA hydrolysis by 75 nM tPA with 70 nM p97, without plasminogen: Addition of p97 to tPA elicits no observable effect
plasminogen, P00747
  apparent Km of tPA for plasminogen, with 50 nM p97: decreases the apparent Km of tPA for plasminogen by 5-fold from 280 to 52 nM
  apparent Km of tPA for plasminogen, without p97: decreases the apparent Km of tPA for plasminogen by 5-fold from 280 to 52 nM
